This note sets out measurements from PMC8363748, “The conformational stability of pro-apoptotic BAX is dictated by discrete residues of the protein core” (Nature Communications, 2021).

B1: N-His6-GFP-BAX α2–α5 (53–128), C62S/C126S (domain or fragment, human, UniProt Q07812 53-128, looked up)
chain: DASTKKLSESLKRIGDELDSNMELQRMIAAVDTDSPREVFFRVAADMFSDGNFNWGRVVALFYFASKLVLKALSTK
notes: BAX α2–α5 truncate, residues 53–128, human; also called BAX α2–α5 WT; wild-type BAX α2–α5; source: E. coli, purified (Ni-NTA, SEC Superdex S-200); not shown: His6, N-terminal, kept; GFP, N-terminal, kept
B2: GFP-BAX α2–α5 L113A/Y115A (domain or fragment, human, UniProt Q07812 53-128, looked up)
chain: DASTKKLSESLKRIGDELDSNMELQRMIAAVDTDSPREVFFRVAADMFSDGNFNWGRVVAAFAFASKLVLKALSTK
notes: BAX α2–α5 truncate, residues 53–128, human; also called double alanine mutant; source: E. coli, purified (Ni-NTA, SEC Superdex S-200); not shown: His6, N-terminal, kept; GFP, N-terminal, kept
B3: GFP-BAX α2–α5 F114A/F116A (domain or fragment, human, UniProt Q07812 53-128, looked up)
chain: DASTKKLSESLKRIGDELDSNMELQRMIAAVDTDSPREVFFRVAADMFSDGNFNWGRVVALAYAASKLVLKALSTK
notes: as for B2
B4: GFP-BAX α2–α5 F114A (domain or fragment, human, UniProt Q07812 53-128, looked up)
chain: DASTKKLSESLKRIGDELDSNMELQRMIAAVDTDSPREVFFRVAADMFSDGNFNWGRVVALAYFASKLVLKALSTK
notes: BAX α2–α5 truncate, residues 53–128, human; source: E. coli, purified (Ni-NTA, SEC Superdex S-200); not shown: His6, N-terminal, kept; GFP, N-terminal, kept
B5: GFP-BAX α2–α5 L113A/F114A (domain or fragment, human, UniProt Q07812 53-128, looked up)
chain: DASTKKLSESLKRIGDELDSNMELQRMIAAVDTDSPREVFFRVAADMFSDGNFNWGRVVAAAYFASKLVLKALSTK
notes: as for B2
B6: GFP-BAX α2–α5 L113A/F116A (domain or fragment, human, UniProt Q07812 53-128, looked up)
chain: DASTKKLSESLKRIGDELDSNMELQRMIAAVDTDSPREVFFRVAADMFSDGNFNWGRVVAAFYAASKLVLKALSTK
notes: as for B2
B7: GFP-BAX α2–α5 L113A/F114A/Y115A (domain or fragment, human, UniProt Q07812 53-128, looked up)
chain: DASTKKLSESLKRIGDELDSNMELQRMIAAVDTDSPREVFFRVAADMFSDGNFNWGRVVAAAAFASKLVLKALSTK
notes: BAX α2–α5 truncate, residues 53–128, human; also called triple BAX α2–α5 mutant L113A/F114A/Y115A; source: E. coli, purified (Ni-NTA, SEC Superdex S-200); not shown: His6, N-terminal, kept; GFP, N-terminal, kept
B8: GFP-BAX α2–α5 Y115A/F116A (domain or fragment, human, UniProt Q07812 53-128, looked up)
chain: DASTKKLSESLKRIGDELDSNMELQRMIAAVDTDSPREVFFRVAADMFSDGNFNWGRVVALFAAASKLVLKALSTK
notes: as for B2
B9: GFP-BAX α2–α5 Y115A (domain or fragment, human, UniProt Q07812 53-128, looked up)
chain: DASTKKLSESLKRIGDELDSNMELQRMIAAVDTDSPREVFFRVAADMFSDGNFNWGRVVALFAFASKLVLKALSTK
notes: as for B4
B10: GFP-BAX α2–α5 L113A (domain or fragment, human, UniProt Q07812 53-128, looked up)
chain: DASTKKLSESLKRIGDELDSNMELQRMIAAVDTDSPREVFFRVAADMFSDGNFNWGRVVAAFYFASKLVLKALSTK
notes: as for B4
B11: GFP-BAX α2–α5 F114A/Y115A/F116A (domain or fragment, human, UniProt Q07812 53-128, looked up)
chain: DASTKKLSESLKRIGDELDSNMELQRMIAAVDTDSPREVFFRVAADMFSDGNFNWGRVVALAAAASKLVLKALSTK
notes: BAX α2–α5 truncate, residues 53–128, human; also called triple alanine mutant F114A/Y115A/F116A; source: E. coli, purified (Ni-NTA, SEC Superdex S-200); not shown: His6, N-terminal, kept; GFP, N-terminal, kept
B12: GFP-BAX α2–α5 L113A/Y115A/F116A (domain or fragment, human, UniProt Q07812 53-128, looked up)
chain: DASTKKLSESLKRIGDELDSNMELQRMIAAVDTDSPREVFFRVAADMFSDGNFNWGRVVAAFAAASKLVLKALSTK
notes: BAX α2–α5 truncate, residues 53–128, human; also called triple alanine mutant L113A/Y115A/F116A; source: E. coli, purified (Ni-NTA, SEC Superdex S-200); not shown: His6, N-terminal, kept; GFP, N-terminal, kept
B13: GFP-BAX α2–α5 F114A/Y115A (domain or fragment, human, UniProt Q07812 53-128, looked up)
chain: DASTKKLSESLKRIGDELDSNMELQRMIAAVDTDSPREVFFRVAADMFSDGNFNWGRVVALAAFASKLVLKALSTK
notes: as for B2
B14: GFP-BAX α2–α5 L113A/F114A/F116A (domain or fragment, human, UniProt Q07812 53-128, looked up)
chain: DASTKKLSESLKRIGDELDSNMELQRMIAAVDTDSPREVFFRVAADMFSDGNFNWGRVVAAAYAASKLVLKALSTK
notes: BAX α2–α5 truncate, residues 53–128, human; also called triple BAX α2–α5 mutant L113A/F114A/F116A; source: E. coli, purified (Ni-NTA, SEC Superdex S-200); not shown: His6, N-terminal, kept; GFP, N-terminal, kept
B15: GFP-BAX α2–α5 F116A (domain or fragment, human, UniProt Q07812 53-128, looked up)
chain: DASTKKLSESLKRIGDELDSNMELQRMIAAVDTDSPREVFFRVAADMFSDGNFNWGRVVALFYAASKLVLKALSTK
notes: as for B4

The series deals with the molecule itself. Put plainly: SEC; N-His6-GFP-BAX α2–α5 proteins, Superdex S-200, TBS; the dimer is observed as a GFP-mediated dimer/oligomer of dimers. A general note: Size exclusion chromatography separates by hydrodynamic size, large species first.
As to B1, the binding result is recorded as “binds”.
With B2, the binding result is reported as “binds”.
Turning to B3, the binding result was “binds”.
The entry for B4 is “binds”; for B5 it is “binds”.
In the case of B6, the binding result is listed as “binds”.
For B7, the binding result is given as “binds”.
On to B8, for which the binding result is given as “binds”.
The entry for B9 is “binds”; for B10 it is “binds”; for B11 it is “binds”.
Take B12: the binding result is “binds”.
As for B13, the binding result is recorded as “binds”.
Take B14: the binding result is “binds”.
Consider B15, for which the binding result is “binds”.
